# B1: GANAB (protein, UniProt Q14697 29-944, looked up)
# Neutral alpha-glucosidase AB: ITLAVDRSNFKTCEESSFCKRQRSIRPGLSPYRALLDSLQLGPDSLTVHLIHEVTKVLLVLELQGLQKNMTRFRIDELEPRRPRYRVPDVLVADPPIARLSVSGRDENSVELTMAEGPYKIILTARPFRLDLLEDRSLLLSVNARGLLEFEHQRAPRVSQGSKDPAEGDGAQPEETPRDGDKPEETQGKAEKDEPGAWEETFKTHSDSKPYGPMSVGLDFSLPGMEHVYGIPEHADNLRLKVTEGGEPYRLYNLDVFQYELYNPMALYGSVPVLLAHNPHRDLGIFWLNAAETWVDISSNTAGKTLFGKMMDYLQGSGETPQTDVRWMSETGIIDVFLLLGPSISDVFRQYASLTGTQALPPLFSLGYHQSRWNYRDEADVLEVDQGFDDHNLPCDVIWLDIEHADGKRYFTWDPSRFPQPRTMLERLASKRRKLVAIVDPHIKVDSGYRVHEELRNLGLYVKTRDGSDYEGWCWPGSAGYPDFTNPTMRAWWANMFSYDNYEGSAPNLFVWNDMNEPSVFNGPEVTMLKDAQHYGGWEHRDVHNIYGLYVHMATADGLRQRSGGMERPFVLARAFFAGSQRFGAVWTGDNTAEWDHLKISIPMCLSLGLVGLSFCGADVGGFFKNPEPELLVRWYQMGAYQPFFRAHAHLDTGRREPWLLPSQHNDIIRDALGQRYSLLPFWYTLLYQAHREGIPVMRPLWVQYPQDVTTFNIDDQYLLGDALLVHPVSDSGAHGVQVYLPGQGEVWYDIQSYQKHHGPQTLYLPVTLSSIPVFQRGGTIVPRWMRVRRSSECMKDDPITLFVALSPQGTAQGELFLDDGHTFNYQTRQEFLLRRFSFSGNTLVSSSADPEGHFETPIWIERVVIIGAGKPAAVVLQTKGSPESRLSFQHDPETSVLVLRKPGINVASDWSIHLR
# B2: HIST1H1D (protein, UniProt P16402 2-221, looked up)
# Histone H1.3: SETAPLAPTIPAPAEKTPVKKKAKKAGATAGKRKASGPPVSELITKAVAASKERSGVSLAALKKALAAAGYDVEKNNSRIKLGLKSLVSKGTLVQTKGTGASGSFKLNKKAASGEGKPKAKKAGAAKPRKPAGAAKKPKKVAGAATPKKSIKKTPKKVKKPATAAGTKKVAKSAKKVKTPQPKKAAKSPAKAKAPKPKAAKPKSGKPKVTKAKKAAPKKK
# B3: PATLI (protein, UniProt Q86TB9 1-770, looked up)
# Protein PAT1 homolog 1: MFRYESLEDCPLDEDEDAFQGLGEEDEEIDQFNDDTFGSGAVDDDWQEAHERLAELEEKLPVAVNEQTGNGERDEMDLLGDHEENLAERLSKMVIENELEDPAIMRAVQTRPVLQPQPGSLNSSIWDGSEVLRRIRGPLLAQEMPTVSVLEYALPQRPPQGPEDDRDLSERALPRRSTSPIIGSPPVRAVPIGTPPKQMAVPSFTQQILCPKPVHVRPPMPPRYPAPYGERMSPNQLCSVPNSSLLGHPFPPSVPPVLSPLQRAQLLGGAQLQPGRMSPSQFARVPGFVGSPLAAMNPKLLQGRVGQMLPPAPGFRAFFSAPPSATPPPQQHPPGPGPHLQNLRSQAPMFRPDTTHLHPQHRRLLHQRQQQNRSQHRNLNGAGDRGSHRSSHQDHLRKDPYANLMLQREKDWVSKIQMMQLQSTDPYLDDFYYQNYFEKLEKLSAAEEIQGDGPKKERTKLITPQVAKLEHAYKPVQFEGSLGKLTVSSVNNPRKMIDAVVTSRSEDDETKEKQVRDKRRKTLVIIEKTYSLLLDVEDYERRYLLSLEEERPALMDDRKHKICSMYDNLRGKLPGQERPSDDHFVQIMCIRKGKRMVARILPFLSTEQAADILMTTARNLPFLIKKDAQDEVLPCLLSPFSLLLYHLPSVSITSLLRQLMNLPQSAATPALSNPHLTAVLQNKFGLSLLLILLSRGEDLQSSDPATESTQNNQWTEVMFMATRELLRIPQAALAKPISIPTNLVSLFSRYVDRQKLNLLETKLQLVQGIR
# B4: ZNF622 (protein, UniProt Q969S3 2-477, looked up)
# Cytoplasmic 60S subunit …: ATYTCITCRVAFRDADMQRAHYKTDWHRYNLRRKVASMAPVTAEGFQERVRAQRAVAEEESKGSATYCTVCSKKFASFNAYENHLKSRRHVELEKKAVQAVNRKVEMMNEKNLEKGLGVDSVDKDAMNAAIQQAIKAQPSMSPKKAPPAPAKEARNVVAVGTGGRGTHDRDPSEKPPRLQWFEQQAKKLAKQQEEDSEEEEEDLDGDDWEDIDSDEELECEDTEAMDDVVEQDAEEEEAEEGPPLGAIPITDCLFCSHHSSSLMKNVAHMTKDHSFFIPDIEYLSDIKGLIKYLGEKVGVGKICLWCNEKGKSFYSTEAVQAHMNDKSHCKLFTDGDAALEFADFYDFRSSYPDHKEGEDPNKAEELPSEKNLEYDDETMELILPSGARVGHRSLMRYYKQRFGLSRAVAVAKNRKAVGRVLQQYRALGWTGSTGAALMRERDMQYVQRMKSKWMLKTGMKNNATKQMHFRVQVRF
# B5: RNPS1 (protein, UniProt Q15287 1-305, looked up)
# RNA-binding protein with …: MDLSGVKKKSLLGVKENNKKSSTRAPSPTKRKDRSDEKSKDRSKDKGATKESSEKDRGRDKTRKRRSASSGSSSTRSRSSSTSSSGSSTSTGSSSGSSSSSASSRSGSSSTSRSSSSSSSSGSPSPSRRRHDNRRRSRSKSKPPKRDEKERKRRSPSPKPTKVHIGRLTRNVTKDHIMEIFSTYGKIKMIDMPVERMHPHLSKGYAYVEFENPDEAEKALKHMDGGQIDGQEITATAVLAPWPRPPPRRFSPPRRMLPPPPMWRRSPPRMRRRSRSPRRRSPVRRRSRSPGRRRHRSRSSSNSSR
# B6: TMPO (protein, UniProt P42166 2-694, looked up)
# Lamina-associated polypeptide …: PEFLEDPSVLTKDKLKSELVANNVTLPAGEQRKDVYVQLYLQHLTARNRPPLPAGTNSKGPPDFSSDEEREPTPVLGSGAAAAGRSRAAVGRKATKKTDKPRQEDKDDLDVTELTNEDLLDQLVKYGVNPGPIVGTTRKLYEKKLLKLREQGTESRSSTPLPTISSSAENTRQNGSNDSDRYSDNEEGKKKEHKKVKSTRDIVPFSELGTTPSGGGFFQGISFPEISTRPPLGSTELQAAKKVHTSKGDLPREPLVATNLPGRGQLQKLASERNLFISCKSSHDRCLEKSSSSSSQPEHSAMLVSTAASPSLIKETTTGYYKDIVENICGREKSGIQPLCPERSHISDQSPLSSKRKALEESESSQLISPPLAQAIRDYVNSLLVQGGVGSLPGTSNSMPPLDVENIQKRIDQSKFQETEFLSPPRKVPRLSEKSVEERDSGSFVAFQNIPGSELMSSFAKTVVSHSLTTLGLEVAKQSQHDKIDASELSFPFHESILKVIEEEWQQVDRQLPSLACKYPVSSREATQILSVPKVDDEILGFISEATPLGGIQAASTESCNQQLDLALCRAYEAAASALQIATHTAFVAKAMQADISQAAQILSSDPSRTHQALGILSKTYDAASYICEAAFDEVKMAAHTMGNATVGRRYLWLKDCKINLASKNKLASTPFKGGTLFGGEVCKVIKKRGNKH
# B7: DBX3X: host protein, UniProt O00571 (protein, UniProt O00571 2-662, looked up)
# ATP-dependent RNA helicase …: SHVAVENALGLDQQFAGLDLNSSDNQSGGSTASKGRYIPPHLRNREATKGFYDKDSSGWSSSKDKDAYSSFGSRSDSRGKSSFFSDRGSGSRGRFDDRGRSDYDGIGSRGDRSGFGKFERGGNSRWCDKSDEDDWSKPLPPSERLEQELFSGGNTGINFEKYDDIPVEATGNNCPPHIESFSDVEMGEIIMGNIELTRYTRPTPVQKHAIPIIKEKRDLMACAQTGSGKTAAFLLPILSQIYSDGPGEALRAMKENGRYGRRKQYPISLVLAPTRELAVQIYEEARKFSYRSRVRPCVVYGGADIGQQIRDLERGCHLLVATPGRLVDMMERGKIGLDFCKYLVLDEADRMLDMGFEPQIRRIVEQDTMPPKGVRHTMMFSATFPKEIQMLARDFLDEYIFLAVGRVGSTSENITQKVVWVEESDKRSFLLDLLNATGKDSLTLVFVETKKGADSLEDFLYHEGYACTSIHGDRSQRDREEALHQFRSGKSPILVATAVAARGLDISNVKHVINFDLPSDIEEYVHRIGRTGRVGNLGLATSFFNERNINITKDLLDLLVEAKQEVPSWLENMAYEHHYKGSSRGRSKSSRFSGGFGARDYRQSSGASSSSFSSSRASSSRSGGGGHGSSRGFGGGGYGGFYNSDGYGGNYNSQGVDWWGN
# B8: POLG (protein, UniProt P54098 1-1239, looked up)
# DNA polymerase subunit gamma-1: MSRLLWRKVAGATVGPGPVPAPGRWVSSSVPASDPSDGQRRRQQQQQQQQQQQQQPQQPQVLSSEGGQLRHNPLDIQMLSRGLHEQIFGQGGEMPGEAAVRRSVEHLQKHGLWGQPAVPLPDVELRLPPLYGDNLDQHFRLLAQKQSLPYLEAANLLLQAQLPPKPPAWAWAEGWTRYGPEGEAVPVAIPEERALVFDVEVCLAEGTCPTLAVAISPSAWYSWCSQRLVEERYSWTSQLSPADLIPLEVPTGASSPTQRDWQEQLVVGHNVSFDRAHIREQYLIQGSRMRFLDTMSMHMAISGLSSFQRSLWIAAKQGKHKVQPPTKQGQKSQRKARRGPAISSWDWLDISSVNSLAEVHRLYVGGPPLEKEPRELFVKGTMKDIRENFQDLMQYCAQDVWATHEVFQQQLPLFLERCPHPVTLAGMLEMGVSYLPVNQNWERYLAEAQGTYEELQREMKKSLMDLANDACQLLSGERYKEDPWLWDLEWDLQEFKQKKAKKVKKEPATASKLPIEGAGAPGDPMDQEDLGPCSEEEEFQQDVMARACLQKLKGTTELLPKRPQHLPGHPGWYRKLCPRLDDPAWTPGPSLLSLQMRVTPKLMALTWDGFPLHYSERHGWGYLVPGRRDNLAKLPTGTTLESAGVVCPYRAIESLYRKHCLEQGKQQLMPQEAGLAEEFLLTDNSAIWQTVEELDYLEVEAEAKMENLRAAVPGQPLALTARGGPKDTQPSYHHGNGPYNDVDIPGCWFFKLPHKDGNSCNVGSPFAKDFLPKMEDGTLQAGPGGASGPRALEINKMISFWRNAHKRISSQMVVWLPRSALPRAVIRHPDYDEEGLYGAILPQVVTAGTITRRAVEPTWLTASNARPDRVGSELKAMVQAPPGYTLVGADVDSQELWIAAVLGDAHFAGMHGCTAFGWMTLQGRKSRGTDLHSKTATTVGISREHAKIFNYGRIYGAGQPFAERLLMQFNHRLTQQEAAEKAQQMYAATKGLRWYRLSDEGEWLVRELNLPVDRTEGGWISLQDLRKVQRETARKSQWKKWEVVAERAWKGGTESEMFNKLESIATSDIPRTPVLGCCISRALEPSAVQEEFMTSRVNWVVQSSAVDYLHLMLVAMKWLFEEFAIDGRFCISIHDEVRYLVREEDRYRAALALQITNLLTRCMFAYKLGLNDLPQSVAFFSAVDIDRCLRKEVTMDCKTPSNPTGMERRYGIPQGEALDIYQIIELTKGSLEKRSQPGP
# Test system: HCoV-OC43 gRNA and sgRNA
# Assay type: binding
# Conditions: for target (unweighted spectral count, OC43 Probe II) / background (unweighted spectral count, no-probe control): type n_48_v, 48 hpi; for target (unweighted spectral count, OC43 Probe II): OC43 Probe II capture on infected cells; for background (unweighted spectral count, no-probe control): no-probe control on infected cells; for target (unweighted spectral count): OC43 Probe II, 12 hpi (type n_12_v), infected cells, tested against no-probe control
Molecule,"target (unweighted spectral count, OC43 Probe II)","background (unweighted spectral count, no-probe control)",target (unweighted spectral count),other results
B1,5,1,,
B2,,,5,
B3,5,1,,
B4,5,1,,
B5,,,7,
B6,,,4,
B7,,,,"target (spectral count) (type s_36_m, HCoV-OC43-infected HCT-8 cells, 36 hpi, Probe II): 7; background (spectral count) (type s_36_m, uninfected-probe control, 36 hpi, Probe II): 1"
B8,,,5,
